The values below come from the supplement of paper PMC10567573.

B1: GFOD1 (parent)
chain: EEAEELAKEMSVPFYTSRIDEVLL
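Note: lentivirally expressed fusions sorted by FACS into six bins by GFP to DsRed ratio, PSI derived from sequencing read proportions per bin multiplied by bin number.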

In the series the parent is B1. The experiment in a line: protein stability index of a GFP-peptide fusion (GPS, HEK-293T) (PSI 1-6); higher = more stable. Conditions: c terminus: a fixed tail appended.
With EEAEELAKEMSVRFYTSRIDEVLL [P13R], the protein stability index amounted to 4.11.
As to EEAEELAKEMSVQFYTSRIDEVLL [P13Q], the protein stability index came out at 3.47.
The value for EEAEELAKEMSVEFYTSRIDEVLL [P13E] was 3.97.
With EEAEELAKEMSVSFYTSRIDEVLL [P13S], the protein stability index is 3.47.
The value for EEAEELAKEMSVDFYTSRIDEVLL [P13D] was 3.96; that for EEAEELAKEMSVMFYTSRIDEVLL [P13M] was 3.32; that for EEAEELAKEMSVKFYTSRIDEVLL [P13K] was 3.19.
The value for EEAEELAKEMSVLFYTSRIDEVLL [P13L] was 2.57.
The value for EEAEELAKEMSVGFYTSRIDEVLL [P13G] was 4.02; that for EEAEELAKEMSVVFYTSRIDEVLL [P13V] was 2.74.
Turning to EEAEELAKEMSVCFYTSRIDEVLL [P13C], the protein stability index worked out at 3.27.
Take EEAEELWKEMSVPFYTSRIDEVLL [A7W]: the protein stability index is 2.39.
Turning to EEAEELRKEMSVPFYTSRIDEVLL [A7R], the protein stability index was 3.62.
For EEAEELMKEMSVPFYTSRIDEVLL [A7M] the value was 3.14; for EEAEELTKEMSVPFYTSRIDEVLL [A7T], 3.79.
As to EEAEELHKEMSVPFYTSRIDEVLL [A7H], the protein stability index turned out to be 4.2.
Consider EEAEELIKEMSVPFYTSRIDEVLL [A7I], for which the protein stability index was 2.77.
The value for EEAEELLKEMSVPFYTSRIDEVLL [A7L] was 2.93; that for EEAEELPKEMSVPFYTSRIDEVLL [A7P] was 4.5.
For EEAEELYKEMSVPFYTSRIDEVLL [A7Y] the value was 3.07.
Regarding EEAEELSKEMSVPFYTSRIDEVLL [A7S], the protein stability index is 3.6.
The value for EEAEELVKEMSVPFYTSRIDEVLL [A7V] was 4.01; that for EEAEELQKEMSVPFYTSRIDEVLL [A7Q] was 4.06.
Take EEAEELNKEMSVPFYTSRIDEVLL [A7N]: the protein stability index is 4.02.
For EEAEELKKEMSVPFYTSRIDEVLL [A7K] the value was 3.32.
For EEAEELAKEMSVPFLTSRIDEVLL [Y15L] the value was 3.67; for EEAEELAKEMSVPFSTSRIDEVLL [Y15S], 5.01.
The value for EEAEELAKEMSVPFNTSRIDEVLL [Y15N] was 4.83; that for EEAEELAKEMSVPFPTSRIDEVLL [Y15P] was 5.
Take EEAEELAKEMSVPFITSRIDEVLL [Y15I]: the protein stability index was found to be 3.62.
Take EEAEELAKEMSVPFWTSRIDEVLL [Y15W]: the protein stability index was determined as 3.1.
On to EEAEELAKEMSVPFHTSRIDEVLL [Y15H], for which the protein stability index came to 4.77.
For EEAEELAKEMSVPFCTSRIDEVLL [Y15C] the value was 3.97; for EEAEELAKEMSVPFQTSRIDEVLL [Y15Q], 4.42; for EEAEELAKEMSVPFFTSRIDEVLL [Y15F], 3.61.
For EEAEELAKEMSVPFRTSRIDEVLL [Y15R], the protein stability index amounted to 4.2.
For EEAEELAKEMSVPFETSRIDEVLL [Y15E] the value was 4.99; for EEAEELAKEMSVPFATSRIDEVLL [Y15A], 4.47; for EEAEELAKEMSVPFMTSRIDEVLL [Y15M], 4.14.
For EEAEELAKEMSVPFKTSRIDEVLL [Y15K], the protein stability index was found to be 4.41.
For the variant EEAEELAKEMSVPFGTSRIDEVLL [Y15G], the protein stability index was 4.97.
EEAEELAKEMSVPFTTSRIDEVLL [Y15T]: the protein stability index is 4.91.
With EEAEELAREMSVPFYTSRIDEVLL [K8R], the protein stability index was 4.04.
In the case of EEAEELAGEMSVPFYTSRIDEVLL [K8G], the protein stability index stood at 4.1.
For the variant EEAEELASEMSVPFYTSRIDEVLL [K8S], the protein stability index came to 2.89.
For EEAEELAMEMSVPFYTSRIDEVLL [K8M] the value was 3.29.
The value for EEAEELAAEMSVPFYTSRIDEVLL [K8A] was 3.66; that for EEAEELADEMSVPFYTSRIDEVLL [K8D] was 3.94.
Consider EEAEELACEMSVPFYTSRIDEVLL [K8C], for which the protein stability index is 2.9.
The value for EEAEELANEMSVPFYTSRIDEVLL [K8N] was 3.39; that for EEAEELAIEMSVPFYTSRIDEVLL [K8I] was 2.76; that for EEAEELAEEMSVPFYTSRIDEVLL [K8E] was 4.17.
For the variant EEAEELATEMSVPFYTSRIDEVLL [K8T], the protein stability index is 3.89.
The value for EEAEELAFEMSVPFYTSRIDEVLL [K8F] was 2.25; that for EEAEELAVEMSVPFYTSRIDEVLL [K8V] was 2.85; that for EEAEELAHEMSVPFYTSRIDEVLL [K8H] was 3.66.
As for EEAEELAYEMSVPFYTSRIDEVLL [K8Y], the protein stability index stood at 2.86.
For EEAEELAPEMSVPFYTSRIDEVLL [K8P] the value was 3.59; for EEAEELALEMSVPFYTSRIDEVLL [K8L], 2.46.
EEAEELAKEMSVPVYTSRIDEVLL [F14V]: the protein stability index was 3.86.
The value for EEAEELAKEMSVPHYTSRIDEVLL [F14H] was 4.2.
The value for EEAEELAKEMSVPRYTSRIDEVLL [F14R] was 4.22.
The value for EEAEELAKEMSVPEYTSRIDEVLL [F14E] was 4.4; that for EEAEELAKEMSVPQYTSRIDEVLL [F14Q] was 5.
As for EEAEELAKEMSVPDYTSRIDEVLL [F14D], the protein stability index stood at 4.9.
As to EEAEELAKEMSVPKYTSRIDEVLL [F14K], the protein stability index came out at 4.2.
For EEAEELAKEMSVPLYTSRIDEVLL [F14L] the value was 3.79.
For EEAEELAKEMSVPPYTSRIDEVLL [F14P] the value was 4.85; for EEAEELAKEMSVPGYTSRIDEVLL [F14G], 3.4; for EEAEELAKEMSVPSYTSRIDEVLL [F14S], 4.37.
As to EEAEELAKEMSVPMYTSRIDEVLL [F14M], the protein stability index amounted to 3.83.
As to EEAEELAKEMSVPTYTSRIDEVLL [F14T], the protein stability index stood at 4.51.
The value for EEAEELAKEMSVPWYTSRIDEVLL [F14W] was 3.66; that for EEAEELAKEMSVPAYTSRIDEVLL [F14A] was 4.46.
The value for EEAEELAKEMSVPIYTSRIDEVLL [F14I] was 4.05; that for EEAEELAKEMSVPNYTSRIDEVLL [F14N] was 4.68.
For EEAEELAKEMKVPFYTSRIDEVLL [S11K] the value was 3.17.
Regarding EEAEELAKEMWVPFYTSRIDEVLL [S11W], the protein stability index was found to be 2.76.
The value for EEAEELAKEMGVPFYTSRIDEVLL [S11G] was 2.97; that for EEAEELAKEMDVPFYTSRIDEVLL [S11D] was 4.5; that for EEAEELAKEMFVPFYTSRIDEVLL [S11F] was 2.72.
The value for EEAEELAKEMCVPFYTSRIDEVLL [S11C] was 3.36; that for EEAEELAKEMPVPFYTSRIDEVLL [S11P] was 3.87; that for EEAEELAKEMAVPFYTSRIDEVLL [S11A] was 3.51.
For EEAEELAKEMMVPFYTSRIDEVLL [S11M] the value was 3.67; for EEAEELAKEMQVPFYTSRIDEVLL [S11Q], 4.04.
As to EEAEELAKEMHVPFYTSRIDEVLL [S11H], the protein stability index is 4.04.
For EEAEELAKEMLVPFYTSRIDEVLL [S11L] the value was 4.46.
Consider EEAEELAKEMEVPFYTSRIDEVLL [S11E], for which the protein stability index is 4.74.
The value for EEAEELAKEMNVPFYTSRIDEVLL [S11N] was 2.23.
For EEAEELAKEMIVPFYTSRIDEVLL [S11I] the value was 3.29; for EEAEELAKEMTVPFYTSRIDEVLL [S11T], 4.12.
The value for EEAEELAKEMYVPFYTSRIDEVLL [S11Y] was 2.86; that for EEAEELAKEMRVPFYTSRIDEVLL [S11R] was 3.02.
